The text below walks through data of patent US20080213817.

The target in one data set is E3 ubiquitin ligase Itch (UniProt Q8C863).
In data set [1] the test system is GST-c-Jun fusion protein [GST: P08515].
Sequence of GST-c-Jun fusion protein [GST: P08515] (P08515 whole entry, looked up, the tested form may be a part): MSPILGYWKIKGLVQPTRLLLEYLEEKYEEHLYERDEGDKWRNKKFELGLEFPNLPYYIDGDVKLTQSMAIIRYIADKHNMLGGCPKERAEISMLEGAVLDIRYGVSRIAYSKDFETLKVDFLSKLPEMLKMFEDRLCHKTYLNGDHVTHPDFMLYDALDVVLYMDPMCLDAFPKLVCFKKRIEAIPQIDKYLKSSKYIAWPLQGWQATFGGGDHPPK

Sequence of E3 ubiquitin ligase Itch (UniProt Q8C863) (Q8C863 2-864): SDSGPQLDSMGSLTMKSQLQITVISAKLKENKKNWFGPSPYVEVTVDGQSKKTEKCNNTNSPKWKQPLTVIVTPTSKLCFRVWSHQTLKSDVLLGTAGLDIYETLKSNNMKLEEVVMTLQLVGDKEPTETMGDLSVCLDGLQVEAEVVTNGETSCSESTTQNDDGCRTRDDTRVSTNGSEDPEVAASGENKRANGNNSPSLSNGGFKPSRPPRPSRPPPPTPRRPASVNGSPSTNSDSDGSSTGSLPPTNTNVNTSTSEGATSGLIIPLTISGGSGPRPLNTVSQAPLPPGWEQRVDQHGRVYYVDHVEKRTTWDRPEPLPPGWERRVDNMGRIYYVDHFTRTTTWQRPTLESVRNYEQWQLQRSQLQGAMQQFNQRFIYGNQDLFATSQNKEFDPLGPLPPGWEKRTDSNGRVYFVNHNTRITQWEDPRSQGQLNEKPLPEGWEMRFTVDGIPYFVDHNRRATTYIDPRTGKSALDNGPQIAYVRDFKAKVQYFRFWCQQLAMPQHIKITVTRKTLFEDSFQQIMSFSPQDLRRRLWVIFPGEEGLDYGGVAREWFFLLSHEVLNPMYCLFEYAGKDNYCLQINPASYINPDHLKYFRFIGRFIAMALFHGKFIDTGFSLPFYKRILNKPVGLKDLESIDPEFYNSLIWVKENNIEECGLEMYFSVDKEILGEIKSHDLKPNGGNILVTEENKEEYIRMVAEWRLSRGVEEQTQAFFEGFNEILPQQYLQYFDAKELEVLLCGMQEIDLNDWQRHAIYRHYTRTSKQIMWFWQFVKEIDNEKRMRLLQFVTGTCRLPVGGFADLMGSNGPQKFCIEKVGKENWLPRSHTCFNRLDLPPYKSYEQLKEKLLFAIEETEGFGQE
Sequence of E3 ubiquitin ligase Itch (chain, as listed by the source): as the sequence (Q8C863 2-864) above

Turning to “c-Jun N-terminal kinase 1 (JNK1), active”, the “Itch phosphorylation (in vitro kinase reaction with [gamma-32P]ATP, autoradiography)” value with E3 ubiquitin ligase Itch was “Incubation of Itch with active JNK1 also led to its efficient phosphorylation”.
For the substance E3 ubiquitin ligase Itch, the “polyubiquitination of c-Jun (in vitro ubiquitination assay, immunoblot with anti-c-Jun)” value in data set [1] is “Itch isolated from primary T cells mediated polyubiquitination of c-Jun in a manner dependent on E1 and E2”.
